Measured values published in US20170137818, “APTAMER INHIBITING BIOLOGICAL ACTIVITY OF AUTOTAXIN BY BINDING WITH AUTOTAXIN, AND USE THEREOF” (RIBOMIC INC., published 2017).

Experiments:
autotaxin (ENPP2/NPP2) [1] = target: T1, autotaxin (ENPP2/NPP2) (Homo sapiens, UniProt Q13822 Q13822:36-863); assay: inhibition; NPP2 assay, 1 mM pNP-TMP, 0.3 nM autotaxin, 37 C
autotaxin (ENPP2/NPP2) [2] = target: T1, autotaxin (ENPP2/NPP2); assay: SPR; not more than 10% of SEQ 12 signal; aptamer 0.3 uM; solution A
autotaxin (ENPP2/NPP2) [3] = target: T1, autotaxin (ENPP2/NPP2); assay: inhibition; NPP2 assay, 37 C; no SPR binding
[4] = target: T2, autotaxin (endogenous, human pooled serum) (Homo sapiens, UniProt Q13822 Q13822:36-863); assay: inhibition; LPA production in serum, 0.025 uM
autotaxin (ENPP2/NPP2) [5] = target: T1, autotaxin (ENPP2/NPP2); assay: inhibition; LPA production, 0.20 uM aptamer, ~92% serum, 37C 3 h
autotaxin (ENPP2/NPP2) [6] = target: T1, autotaxin (ENPP2/NPP2); assay: inhibition; NPP2 assay per text (column headed LysoPLD)
autotaxin (ENPP2/NPP2) [7] = target: T1, autotaxin (ENPP2/NPP2); assay: inhibition; LPA production, 1.0 uM aptamer, ~92% serum, 37C 3 h
autotaxin (ENPP2/NPP2) [8] = target: T1, autotaxin (ENPP2/NPP2); assay: inhibition; NPP2 assay, pNP-TMP, 37 C
autotaxin (ENPP2/NPP2) [9] = target: T1, autotaxin (ENPP2/NPP2); assay: inhibition; LPA production, 0.025 uM aptamer, ~92% serum, 37C 3 h
FGF2 = FGF2 (UniProt P09038 P09038:135-288); assay: SPR; specificity control; FGF2 immobilized, aptamer 0.3 uM; solution A; settings: tags: PeproTech
FGF2, sequence (P09038 135-288, one chain of several): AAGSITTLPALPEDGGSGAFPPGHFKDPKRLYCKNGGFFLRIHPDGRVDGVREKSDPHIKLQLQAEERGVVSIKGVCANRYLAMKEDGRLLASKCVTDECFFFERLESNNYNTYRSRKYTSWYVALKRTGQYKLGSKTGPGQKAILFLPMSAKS

[10] = target: T2, autotaxin (endogenous, human pooled …); assay: inhibition; LPA production in serum, 1.0 uM
autotaxin (ENPP2/NPP2) [11] = target: T1, autotaxin (ENPP2/NPP2); assay: inhibition; LysoPLD assay, 2 mM 14:0 LPC, 2.1 nM autotaxin, 37 C

B1: SEQ 8 aptamer (ssDNA)
DNA: GTGGTCTAGCTGTACTCCGAAAGCCGGAACCGTGCCAATGGTCGCTACTTCAGCTCCCCACAGTCAACGAGCTA
Autotaxin (ENPP2/NPP2) [1]
  IC50: 10 nM

B2: SEQ 15 aptamer (ssDNA)
DNA: CCTGGACGGAACCAATACTTGGTCTCCAGG
Autotaxin (ENPP2/NPP2) [2]
  binding result: no binding
Autotaxin (ENPP2/NPP2) [3]
  IC50: 990 nM

B3: 12(141) (ssDNA)
DNA: CCTGGACGGAACCAGAATACTTTTGGTCTCCAGG
modifications: 2'-OMe C7,G9,A14,G15,A19,C20,A32,G33,G34; P-methyl C1,G5,G8,C12,A14,A16,T21,T23,C28,C30,C31; 5' idT, 3' idT
[4]
  activity: 56 % inhibition

B4: 12(56) (ssDNA)
DNA: CCTGGACGGAACCAGAATACTTTTGGTCTCCAGG
modifications: 2'-OMe C7,G9,A14,G15,A19,C20,A32,G33,G34; 5' 40 kDa PEG (GL2-400GS2) via ssH linker; 3' C6 spacer
Autotaxin (ENPP2/NPP2) [5]
  activity: 93 % inhibition

B5: 12(152) (ssDNA)
DNA: CCTGGACGGAACCAGAATACTTTTGGTCTCCAGG
modifications: 2'-OMe C7,G9,A14,G15,A19,C20,A32,G33,G34; P-butoxy between C12 and C13; 5' idT, 3' idT
Autotaxin (ENPP2/NPP2) [6]
  IC50: 0.23 nM

B6: 12(44) (ssDNA)
DNA: CCTGGACGGAACCAGAATACTTTTGGTCTCCAGG
modifications: 2'-OMe C1,G5,C7,G9,C13,A14,G15,A19,C20,A32,G33,G34; idT 5' and 3'
Autotaxin (ENPP2/NPP2) [7]
  activity: 87 % inhibition

B7: 12(148) (ssDNA)
DNA: CCTGGACGGAACCAGAATACTTTTGGTCTCCAGG
modifications: 2'-OMe C7,G9,A14,G15,A19,C20,A32,G33,G34; 3' idT
Autotaxin (ENPP2/NPP2) [8]
  IC50: 6.8 nM

B8: 12(136) (ssDNA)
DNA: CCTGGACGGAACCAGAATACTTTTGGTCTCCAGG
modifications: 2'-OMe C7,G9,A14,G15,A19,C20,A32,G33,G34; P-methyl C1,G5,G8,C12,A16,T21,T23,C28,C30,C31,G33; idT 5' and 3'
Autotaxin (ENPP2/NPP2) [9]
  activity: 17 % inhibition

B9: 12(53) (ssDNA)
DNA: CCTGGACGGAACCAGAATACTTTTGGTCTCCAGG
modifications: 2'-OMe C7,G9,A14,G15,A19,C20,A32,G33,G34; 5' 80 kDa PEG (GL4-800TS) via ssH linker; 3' idT
Autotaxin (ENPP2/NPP2) [5]
  activity: 92 % inhibition

B10: 12(47) (ssDNA)
DNA: CCTGGACGGAACCAGAATACTTTTGGTCTCCAGG
modifications: 2'-OMe C1,G5,C7,G9,C12,C13,A14,G15,A19,C20,C30,A32,G33,G34; idT 5' and 3'
Autotaxin (ENPP2/NPP2) [7]
  activity: 57 % inhibition

B11: 12(137) (ssDNA)
DNA: CCTGGACGGAACCAGAATACTTTTGGTCTCCAGG
modifications: 2'-OMe C7,G9,A14,G15,A19,C20,A32,G33,G34; P-methyl C1,G5,G8,C12,A16,T21,T23,C28,C30,C31,A32; idT 5' and 3'
Autotaxin (ENPP2/NPP2) [9]
  activity: 56 % inhibition

B12: 12(151) (ssDNA)
DNA: CCTGGACGGAACCAGAATACTTTTGGTCTCCAGG
modifications: 2'-OMe C7,G9,A14,G15,A19,C20,A32,G33,G34; P-propoxy between C12 and C13; 5' idT, 3' idT
Autotaxin (ENPP2/NPP2) [6]
  IC50: 0.32 nM

B13: 12(134) (ssDNA)
DNA: CCTGGACGGAACCAGAATACTTTTGGTCTCCAGG
modifications: 2'-OMe C7,G9,A14,G15,A19,C20,A32,G33,G34; P-methyl C1,G5,G8,C12,A16,T21,T23,C28,C30,C31; 5' 40 kDa PEG (GL2-400GS2) via ssH linker; 3' idT
Autotaxin (ENPP2/NPP2) [9]
  activity: 69 % inhibition

B14: 12(46) (ssDNA)
DNA: CCTGGACGGAACCAGAATACTTTTGGTCTCCAGG
modifications: 2'-OMe C1,C7,G9,C13,A14,G15,A19,C20,A32,G33,G34; idT 5' and 3'
Autotaxin (ENPP2/NPP2) [7]
  activity: 83 % inhibition

B15: 12(146) (ssDNA)
DNA: CCTGGACGGAACCAGAATACTTTTGGTCTCCAGG
modifications: 2'-OMe C7,G9,A14,G15,A19,C20,A32,G33,G34; P-methyl C1,G5,G8,C12,A14,A16,T21,T23,C28,C30,C31; 5' 40 kDa PEG (GL2-400GS2) via ssH linker; 3' idT
Autotaxin (ENPP2/NPP2) [9]
  activity: 70 % inhibition

B16: 12(52) (ssDNA)
DNA: CCTGGACGGAACCAGAATACTTTTGGTCTCCAGG
modifications: 2'-OMe C7,G9,A14,G15,A19,C20,A32,G33,G34; 5' 80 kDa PEG (GL4-800GS2) via ssH linker; 3' idT
Autotaxin (ENPP2/NPP2) [5]
  activity: 92 % inhibition

B17: 12(147) (ssDNA)
DNA: CCTGGACGGAACCAGAATACTTTTGGTCTCCAGG
modifications: 2'-OMe C7,G9,A14,G15,A19,C20,A32,G33,G34; P-methyl C1,G5,G8,C12,A14,A16,A19,T21,T23,C28,C30,C31,G34; 5' 40 kDa PEG via ssH linker, 3' idT
[4]
  activity: 70 % inhibition

B18: 12(55) (ssDNA)
DNA: CCTGGACGGAACCAGAATACTTTTGGTCTCCAGG
modifications: 2'-OMe C7,G9,A14,G15,A19,C20,A32,G33,G34; 5' C12 spacer; 3' idT
Autotaxin (ENPP2/NPP2) [5]
  activity: 91 % inhibition

B19: 12(138) (ssDNA)
DNA: CCTGGACGGAACCAGAATACTTTTGGTCTCCAGG
modifications: 2'-OMe C7,G9,A14,G15,A19,C20,A32,G33,G34; P-methyl C1,G5,G8,C12,A16,C20,T21,T23,C28,C30,C31; idT 5' and 3'
Autotaxin (ENPP2/NPP2) [9]
  activity: 44 % inhibition

B20: 12(48) (ssDNA)
DNA: CCTGGACGGAACCAGAATACTTTTGGTCTCCAGG
modifications: 2'-OMe C7,G9,A14,G15,A19,C20,A32,G33,G34; 5' 40 kDa PEG (GL2-400GS2) via ssH linker, 3' idT
FGF2
  binding result: no binding
[10]
  activity: 92 % inhibition

B21: 12(142) (ssDNA)
DNA: CCTGGACGGAACCAGAATACTTTTGGTCTCCAGG
modifications: 2'-OMe C7,G9,A14,G15,A19,C20,A32,G33,G34; P-methyl C1,G5,G8,G9,C12,A16,T21,T23,C28,C30,C31; idT 5' and 3'
Autotaxin (ENPP2/NPP2) [9]
  activity: 44 % inhibition

B22: 12(42) (ssDNA)
DNA: CCTGGACGGAACCAGAATACTTTTGGTCTCCAGG
modifications: 2'-OMe C1,G5,C7,G9,C12,C13,A14,G15,A19,C20,A32,G33,G34; 5' idT, 3' idT
[10]
  activity: 68 % inhibition

B23: 12(145) (ssDNA)
DNA: CCTGGACGGAACCAGAATACTTTTGGTCTCCAGG
modifications: 2'-OMe C7,G9,A14,G15,A19,C20,A32,G33,G34; P-methyl C1,G5,G8,C12,A16,A19,T21,T23,C28,C30,C31; 5' 40 kDa PEG via ssH linker, 3' idT
[4]
  activity: 82 % inhibition

B24: 12(150) (ssDNA)
DNA: CCTGGACGGAACCAGAATACTTTTGGTCTCCAGG
modifications: 2'-OMe C7,G9,A14,G15,A19,C20,A32,G33,G34; P-isopropoxy between C12 and C13; 5' idT, 3' idT
Autotaxin (ENPP2/NPP2) [6]
  IC50: 0.17 nM

B25: 12(149) (ssDNA)
DNA: CCTGGACGGAACCAGAATACTTTTGGTCTCCAGG
modifications: 2'-OMe C7,G9,A14,G15,A19,C20,A32,G33,G34; P-methyl G5,G8,C12,A16,T21,T23,C28,C30,C31,G34; 5' idT, 3' idT
Autotaxin (ENPP2/NPP2) [11]
  IC50: 6.1 nM

B26: 12(54) (ssDNA)
DNA: CCTGGACGGAACCAGAATACTTTTGGTCTCCAGG
modifications: 2'-OMe C7,G9,A14,G15,A19,C20,A32,G33,G34; 5' idT; 3' C12 spacer
Autotaxin (ENPP2/NPP2) [5]
  activity: 89 % inhibition

B27: 12(49) (ssDNA)
DNA: CCTGGACGGAACCAGAATACTTTTGGTCTCCAGG
modifications: 2'-OMe C1,G5,C7,G9,C12,C13,A14,G15,A19,C20,A32,G33,G34; 5' 40 kDa PEG via ssH linker, 3' idT
[10]
  activity: 58 % inhibition

B28: 12(57) (ssDNA)
DNA: CCTGGACGGAACCAGAATACTTTTGGTCTCCAGG
modifications: 2'-OMe C7,G9,A14,G15,A19,C20,A32,G33,G34; 5' 40 kDa PEG (GL2-400GS2) via ssH linker; 3' C12 spacer
Autotaxin (ENPP2/NPP2) [5]
  activity: 93 % inhibition

B29: 12(140) (ssDNA)
DNA: CCTGGACGGAACCAGAATACTTTTGGTCTCCAGG
modifications: 2'-OMe C7,G9,A14,G15,A19,C20,A32,G33,G34; P-methyl C1,G5,G8,C12,G15,A16,T21,T23,C28,C30,C31; idT 5' and 3'
Autotaxin (ENPP2/NPP2) [9]
  activity: 29 % inhibition

B30: 12(43) (ssDNA)
DNA: CCTGGACGGAACCAGAATACTTTTGGTCTCCAGG
modifications: 2'-OMe C1,G5,C7,G9,C12,A14,G15,A19,C20,A32,G33,G34; idT 5' and 3'
Autotaxin (ENPP2/NPP2) [7]
  activity: 85 % inhibition

B31: 12(45) (ssDNA)
DNA: CCTGGACGGAACCAGAATACTTTTGGTCTCCAGG
modifications: 2'-OMe C1,C7,G9,C12,A14,G15,A19,C20,A32,G33,G34; idT 5' and 3'
Autotaxin (ENPP2/NPP2) [7]
  activity: 86 % inhibition

B32: 12(51) (ssDNA)
DNA: CCTGGACGGAACCAGAATACTTTTGGTCTCCAGG
modifications: 2'-OMe C7,G9,A14,G15,A19,C20,A32,G33,G34; 5' 80 kDa PEG (GL2-800TS) via ssH linker; 3' idT
Autotaxin (ENPP2/NPP2) [5]
  activity: 91 % inhibition

B33: 12(144) (ssDNA)
DNA: CCTGGACGGAACCAGAATACTTTTGGTCTCCAGG
modifications: 2'-OMe C7,G9,A14,G15,A19,C20,A32,G33,G34; P-methyl C1,G5,G8,C12,A16,T21,T23,C28,C30,C31,G34; 5' 40 kDa PEG via ssH linker, 3' idT
Autotaxin (ENPP2/NPP2) [11]
  IC50: 1.6 nM
[4]
  activity: 87 % inhibition
